Test results from the DeepSol protein solubility set.

Test: soluble on expression in E. coli; label from the status in PepcDB or PDB records

Soluble on expression in E. coli, not soluble:
MGSDKIHHHHHHMADRPHAEEGQTAGPAGQPGVAAWLDNQPPKWRPVASAIGSLELMTFFQFVLAAVLMSALPAHGADRIIYLTFDDGPLNGTSNILDVLEAEQVPATLFMVGMHAEAGASNKALVRRAKAMPLVTIGNHSYTHAYNHYRHFYGDTEGVVADMLMANVVLGLKPAVHARLPGRDVFRLPSMSKDDNSLGPAQAGREDPDYEFVAASGFYLYGWDHEWVHKDSGEPVQSVDHLVSEIDHLFGYGHFAKPGKLILLMHDEMFQDGFDGKTKLTDLITALKLRHYAFGTIPNYDH, MGSDKIHHHHHHMAEHIITLVLSGERLDVTTSTPFVVALRDLLYEGDWELLKEDMKKKENIMKEVQTCEKLEKVVHLDETVYEPLIFPEFQEWLREENITPKDFKNVSLKGLYDLALEYADRNLYDIAHDIIKFMLDIDENYAPAYELKGSLLVEQGKIEEGIKFLDKAVEIDPWLVQAYASLGEAYYNLGDYEKAIHYWERELEYNPNDKITYFMITEAYYEMNRKDLAVKTLERLLEIDPDNIPALYQLSQLYRELGNEEKAREMEEKIMNCKPKYPTELEPWARVMLKHGRYKEVAEELEKIVESSPLNTLARLLLVVPYVKLGQIDKAREILDDIGQSNFWYYYGKKEILDELLTEEEKRACGIS, MGSDKIHHHHHHMAERFRPLAMAGLAALALVLAGCGDTLESFGGPTMGSTYSIKYVRGASAPDVQTAKAAVEAILAEVDRQMSTYRDDSLVSRFNALPAQSCMELPLPMLELLRYGGELSEQSQGAFDMTVEPLMNLWGFGPQARVEKVPSAEQIAAVRRDVGHRHLRIDGQRLCKDAAVQLDFDSIAAGYTVDAVGERLKELGVRSYLAEITGELKAEGRKPDGTPWRIAIEAPREGQRVAQQVLALDGYGVSTSGDYRNYFEENGQRYSHTFDPRTGAPIDHHLASVTVIDPSTRNADGLSTLLMVLGPEEGYRFAEKHRLAALFVSRQGNGFDSRTTPRYEQLFGNQGERP, MGSDKIHHHHHHMAETAPAPYFSEIARGPDQVEAHWLTTQDGQRIRAGLWRSHGPSAGTILLFPGRTEYIEKYGPLAIDLTDRGFDVLTVDWRGQGLADRSLSDGRLGHVAEFGAFQLDVAALVAHAEALNLPRPWYLLGHSMGGAIGLRALHEGLPVAACAFTAPMWAIRIPFALRPAARLLARFGTALGVSEKLVPTTTIEQYVQVTPFEGNTLTNDPEMYAFLQMQMTQHPELALGGPTVQWLSQAMLECADLRARPSPDVPCVTFLGENEQIVATEAIHDRMARWPSGKLEMIPDAQHEILMEIPQTRRQTCAILTAHFKKHV, MGSDKIHHHHHHMAFDEMINADSSPRQPYSTYHQWYASQDRNRLIAKSKEAEKIFRKTGITFAVYGHADSSEKLIPFDLIPRIISGREWRRLAQGIEQRVIALNAFLDDIYHKQEIIRAGRIPRELVEKNDTFLPQMIGFRPPGGVYTHIVGTDIVRTGEDQYYVLEDNARTPSGVSYMLENRETMMQMFPELFHQNRVRPVENYPNLLRQSLSSLAPAGCEGKPRVAVLTPGIYNSAFYEHAFLADMMGVELVEGSDLRVIDGRVKMRTTRGYEAIDVLYRRVDDDFLDPLTFRPDSALGIPGIMDVYRAGNITIANAPGTGISDDKAIYSYMPEIVEFYTGRKPLLENVPTWRCSEPESLKYVLEHLAELVVKEVHGSGGYGMLVGPTATKKECAAFAEKLKSRPGNYIAQPTLSLSTVPIMVNKGIAPRHVDLRPYVLVSDKVQIIPGGLTRVALKEGSLVVNSSQGGGTKDTWVLED, MGSDKIHHHHHHMAFNQRTVVMIGPGEHYVTAKNEVIKTLLGSCVAVCLYDPKAQVIGMNHFLLAADRRKFTHFLDSRAGYYGVHAMEILINAMLKRGAQRKYLQSKIFGGANVLSLCADNILNHYDIGGMNIDFVRHFLQRERIPIISEDIGGHCGRVIYFDPTDYSVYRSLIEHKYEEIASLQDEEYRYFNQASEDIHSSGVPVVIWSD, MGSDKIHHHHHHMAGGSFMDDLRRGAGDLSVRASVREQDLNTYIMKVSCPARSGIVAAVSGYLARSGCNINDSSQFTDQETARFFMRLSFISEQGSGREALLDGFGSVAADFDMDYDIHDLSQKKKIVIMVSRFGHCLNDLLYRSRIGALPVEIVAVISNHLDYQKQVVNEDIPFHHIRVTPETKPEAEGAILQVVRDTGAELVVLARYMQVLSDQLCQEMSGRIINIHHSFLPSFKGANPYKQAYERGVRLIGATAHYVTADLDEGPIIEQDTIRVTHAQSGMDYVSLGRDVESQVLARAIHAHIHQRVFLNGNKTVVFPASPGEHVSERMG, MGSDKIHHHHHHMAHEAQKAIARNSLLIRSLPEQHVDALLSQAVWRSYDRGETLFLQEEKAQAIHVVIDGWVKLFRMTPTGSEAVVSVFTRGESFGEAVALRNTPYPVSAEAVTPCEVMHIPSPVFVSLMRRDPEICISILATTFGHLHSLVAQLEQLKAQTGAQRVAEFLLELCDCDTGACEVTLPYDKMLIAGRLGMKPESLSRAFSRLKAAGVTVKRNHAEIEDIALLRDYAESDPADSWSKS, MGSDKIHHHHHHMAKADLDKDPFDVASMFDDVGKNYDLTNTVLSFGQDRVWRKRTRQRLDLKPGEKVLDLAAGTAVSTVELAKSGAFCVACDFSQGMLAAGKDRDVSKVVGDGMQLPFADNSFDAVTISYGLRNIHDFRAGLKEMARVTKPGGRLTVAEFSTPVIPVFGTVYKEYLMRLLPQAARAVSSNPEAYIYLADSIRAWPSQAELAREINQNGWSDCGWQNLTFGIVALHSAIKPEN, MGSDKIHHHHHHMAKAFASQGDMSEKKISFTEVGEGLYAFTAEGDPNSGVIIGDDSVMVVEAQATPRLAQKVIDCIREVTDKPISHVVLTHYHAVRVLGASAFGAGQVIMSDTARSMVVERGQEDWDSEFQRFPRLFEGHESIPGLTWPTTTFSDSMTVYLGKRRVDIMHLGRAHTAGDAVIHVPDQNVMFTGDIVEYHSACYCGDGHFNDWGNTLDNIAWFDVDAIAPGRGDALVGKEMVNAAIENTRDFVQSTYRPAARVAARGGSLKEAWDAVRAECDPKFADYAIYEHCLPFNVARAYDEARGIDTPRIWTAQRDLEMWEALQG, MGSDKIHHHHHHMAKKLFDYQLDETVDGYFLLKDSEVRIAKNGKKFLAINFQDTSGEISGKFWDASDTDVENFQAGRIVHLKGKRENYQGNPQIKIQQMRLTHSGEPQEVQQFVEHAPLKTDTMADEINQFVFEITEPNWNRIVRHMLTTFHDRFFSYPAAKKNHHAFAGGLAYHTLSILRLAKAVADQYPHVNRALLYAGAILHDMGKTIEMSGPVSTTYTLAGNLVGHIVLIDEQIVETCQQLKIDEQSESVLVLRHTILAHHGLLEYGSPVRPHIMEAEILHDLDELDASIQMMQTSLGHAEPGTYTERIFAMDGRNFYRPTGDQTKGELPDEQN, MGSDKIHHHHHHMAKKVAVLAVNPVNGCGLFQYLEAFFENGISYKVFAVSDTKEIKTNSGMVLIVDDVIANLKGHEDEFDALVFSCGDAVPVFQQYANQPYNVDLMEVIKTFGEKGKMMIGHCAGAMMFDFTGITKGKKVAVHPLAKPAIQNGIATDEKSEIDGNFFTAQDENTIWTMLPKVIEALK, MGSDKIHHHHHHMANGTTPSVGIALGSGAAKGWAHIGVLNGLAAMGIKPDKVAGCSVGALVGAAYAHDHLPELEEWVRSFSSWDVLGLMDIRWRKGGLIGGDKVFDVLQARIGDVNIENLNRPFAAVATDLYSGQEIWFTEGDLRQAVRASCSMPGILAPVRQGDRWLVDGAVVNPVPVSVSRAMGVDVVIAVDLYGYHSGRIQVLPVSMTSQKNVEAEMDMSARQETGFMDLFARGRDYVSNLTDKFSLGTKSNPGMIAVMSQSMGILEQRHKRARLMGDPPDICIVPEVGNIGTMEFHRADEAIAAGEAAVEKVAHLIEAALWKG, MGSDKIHHHHHHMAQTVSIIVSPEDQVRLAEVIGDRNSPQKHVQRARIVLHSAEHRPVLEVARDIGISRPAVWRWQLRYAEQGVDGLLRDKTRKPGKPPLPLGTVARVLALPCSNPPGSVTHWTGRAVAKAVGISLRAVQRIWDAHHLQPHRLRTFKKSKDPAFTEKVEDVVGLYMEPPCHAVVLSIDEKSQIQALDRTQPGLPLKPGKCATMTHDYKRNGTTTLFAALNILDGTVLGRCMQKHRHQEFIKFLNAVERAVPAGKIIHAILDNYGTHKHPKVRQWLADHPRWVFHFTPTL, MGSDKIHHHHHHMARLSEGWSKEPFFLFFHPPKSPTKKENIKMNYRETLQAVDTEKALSVIGINSTLQGAYVKFNCPECEQQALIKAYGEKKNLWYCPKCKKSGHIISLTMTKKNIQWEEAKDLLLKARNGVKKITEEFNLKYDLQYNDFIKDKGLSEDICKFLEIGTPKGKTMLSGCVAFLVRDEVGMRVAYFGIKMKDEKHVFHKSFNPEQYLYGFQNLDFAYDVYFTTDLFECIKHIENGFQCVCNFGLPYISNEQMELLEKAERVTFSIRDELVKPFALQLTQRQKFYRFIK, MGSDKIHHHHHHMASILAVDVGTTSIKAGIVSTENFEAESTQSTRAVVEYPKKHWAEKDPEKLWNSIVEVCKPLAEKANPDAIVFGAHMAGVVPVDGEGNALRNIITWLDERAAGLPEDVWKGLIKIQGYSLTKLIKFLRLTGGAPSRTGKDPISKIVWIRENEPDVFGKTFKMLDVRGYLVARATGNFVTSPDEAHLTWLADTRGGKARWSESILKDYALSASLFPEIKNCTEIAGYLRPEVRKEFGLEGDVPVMVGSGDVAAAAVGSGAVKDYECHIYVGTSDWVAAHIPQRKTDIFHFIGSLLSAIPEKYLLIAEQEVAAGALEWAMRLVGIQGEYELVKELVEKAPAGKLIFMPWFYGERAPIDDPYVRGGLVNVGLDSGREEVLRAMMEGVALNIKWVFGYVEKMTAPQQMVSIVGGGALFDIWCQIISNAVRRPLRRIKHPEETGLRGLATMAAVGLGEESFESAAAKFEVDRVFKPDDEEAKVYDRLFEYYKELYSKLKKVYRKLNSAEY, MGSDKIHHHHHHMASSSEGVSVLEIECKVVTPMFSRGAAEPKWENGNRVYPFELRPQSIKGVLRFWFRAIAPTVIDIYSLEGLENLSKKEKERWEKEKYKGLKYLEGLIFGSQERKSSFSLEVKVEGESQALGKYMNNRFSFTDDRLKDTKYALYGLYDKSGIYEYLQEGKNFIIILQTANDSIKGIILSLLKLVSTFSGFGAKTRKGFGEFEIVDPKLTRNDYNLVISECQEHIREFVNHHNSSSKVKIKLGRTNFNGIPDFPCFCDYKIFEITKFSGNSPLEVLREVFKVGRNFKGWYPSLKQKMRFSEGDCVKDLVEALEGLLKGRKTEKKIEIPTAVVGLPIQYQNLGRGEIRRLKVIVSSSLRGLGIDDIDGRKASPLFLSVHEGERGKWKLVVLLMRSRVTNDGELITEVKGGKTPSSGIKTIVKEEKDYKNLLEWIKKLGGKEIQGG, MGSDKIHHHHHHMATAIRGLKLQTEDYFLTDKNAVMVAERHPQPVFPLHHHDFDELVIVWRGNGLHLWNDVPYRITRGDMFYVSAHDRHSYESVHELELDNILYIRNRLTLSADWQTLLPSGELPQSQRHWCLGSEGMDTIREKVDALTQECMKSDALSLQLSEALLLQIALLAARYRHSPDSPQLADAHQLDMLMNALRASIAAPFRFEAFCEQHHFSARSLRSRFKEQTGMSVPHYLRQLRLCKAMELLRYDLQTIGDVAALCGFEDSNYFSVVFHQAFGVSPSAYRQRFLNVE, MGSDKIHHHHHHMATENKIKYFENREDWRKWLMDNFETEDEIWFVFPLKSSGEKSIAYNDAVEEALCFEWIDSTIKPLDKEHRIQRFTPRKPKSTYSQANKERLKWLLANKMIHPEFEDKIRTVLSDPFIFPNDIMDRLKEDEIAWRNYRHFSDAYKRIRIAYIEAARKRPEEFEKRLNNFICKVKENKMITGFGGIEKYY
